Experimental data reported in the nanobody polyreactivity screen of Harvey et al. (2022).

Experiment: yeast display, Sf9 membrane polyspecificity reagent, FACS + sequencing; frameworks hold sequencing errors
Summary of the method: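 Polyreactivity labels are assigned by the sorting gate from which each nanobody was recovered. The gates were low and high (top ~1%), set on anti-HA fluorescence for expression and streptavidin fluorescence for reagent binding. Before sorting, galactose-induced (36–48 hours) yeast display cells were stained for 1 hour at 4 °C with 10% biotinylated, detergent-solubilized Sf9 membrane reagent.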

Question: For “QVQLVESGGGLVQAGGSLRLSCAASARIFKTYAMGWYIQAPGKERELVATITWSGGSTYADSVKGRFTITRDNAKNTVYLQMNSLKPEDTAVYYCAAGRTYYSPGYRSYSGYDYWGQGTQVTLSS”, which “polyreactivity (PSR sort gate)” value is on record?
Answer: high polyreactivity

Question: With “QVQLVESGGGLVQAGGSLRLSCAASARIFVINAMGWYRQAPGKERELVADITWSGGSTYADSVKGRFTISRDNAKNTVYLQMYSLKPEDTAVYYCAAVTFVPRSTNGISLYDYWGQGTQVTVSS” as the sequence, how does the “polyreactivity (PSR sort gate)” value read?
Answer: high polyreactivity

Question: For “QVQLVESGGGLVQAGGSLRLSCAASARIFVPYARGWYRQAPGKERELVAAIRKSGGSTYYADSVKGRFTISRDNAKNTVYLQMNSLKPDVTAVYYCAASTLGMVQTQPGKRKTYLYGYWGQGTQVTVSS”, which “polyreactivity (PSR sort gate)” value is on record?
Answer: high polyreactivity

Question: With “QVQLVESGGGLVQAGGSLRLSCAASARIFWRNTMGWSRQAPGKERELVAAINYSGGRTYYADSVQGRFTISRDKAKNTVYLQMNSLKPEDTAVFDCAATPPVATNGRYYYWGQGTQVTVSS” as the sequence, how does the “polyreactivity (PSR sort gate)” value read?
Answer: low polyreactivity

Question: For “QVQLVESGGGLVQAGGSLRLSCAASARIFYPYAMGWYRQAPGKERELVAAINWIGGSTYYADSVKGRFTISRDNAKYTVYLQMNSLKPEDSAVYYCAASYWHRRYDYWGQGTQVTLSS”, which “polyreactivity (PSR sort gate)” value is on record?
Answer: high polyreactivity

Question: Which “polyreactivity (PSR sort gate)” value does the source give for “QVQLVESGGGLVQAGGSLRLSCAASARIIFRNAMGWYRQAPGKERELVAAITYSGGSTYYADSVKGRFTISRDNAKNTVYLQMNSLKPEDTAVYYCGAGYWFCYSRVTRYDYWGQGTQVTVSS” here?
Answer: high polyreactivity

Question: Which “polyreactivity (PSR sort gate)” value does the source give for “QVQLVESGGGLVQAGGSLRLSCAASARILAYYAMGWYRQAPGKERELVAAITSGGRTYYADSVKGRFTISRDNAKNTVYLQMNSLKPEDTAVYYGAVRWYPRYGSRYDYWGQGTQVTVSS” here?
Answer: high polyreactivity

Question: With “QVQLVESGGGLVQAGGSLRLSCAASARTFSYYAMGLYRQEPGKERELVAAIRRSSGTTYYADSVKGRFTISSDNAKYSVYLQMNSLKPEDTADYYCNARSRRASIKRDYWGQGTQVSVSS” as the sequence, how does the “polyreactivity (PSR sort gate)” value read?
Answer: high polyreactivity

Question: Which “polyreactivity (PSR sort gate)” value does the source give for “QVQLVESGGGLVQAGGSLRLSCAASARTFTRYAIGWYRQAPGKERELVAAISFSVGSTYYADSVKGRFTISRDNAKYSVYLQMNRLKPEDTAVYYCARPSGDAWEGPRMDYWGQCTQVTVSS” here?
Answer: low polyreactivity

Question: Which “polyreactivity (PSR sort gate)” value does the source give for “QVQLVESGGGLVQAGGSLRLSCAASASISYYYAMGWYRQETGKERELVAAITRTGTTNYADSVKGRFTISRDNAKNTVYLQMNSLKPEDTAVYYCAKRSTGRLQSYNYRGQGTQVTVSS” here?
Answer: low polyreactivity

Question: For “QVQLVESGGGLVQAGGSLRLSCAASASTFGAYAMGWYRQAPGKERELVAAITESGDNTYYADSVKGRFTISRDNAKNTVYLQMNSLKPEDTAVFYCAADDGYSTYEYWGQGTQVTVSS”, which “polyreactivity (PSR sort gate)” value is on record?
Answer: low polyreactivity

Question: Which “polyreactivity (PSR sort gate)” value does the source give for “QVQLVESGGGLVQAGGSLRLSCAASASTFYTKVMGWYRPAPGKERELVAAISSSGSRTYYADSVKGRFTISRDNAKNTVYLQMNSLKPEDTAVYYCNAYYRLEPDDGDYDYWGQGTQVTVSS” here?
Answer: high polyreactivity

Question: Which “polyreactivity (PSR sort gate)” value does the source give for “QVQLVESGGGLVQAGGSLRLSCAASASTVSRYAMGWYRQAPGKEREVVAGISWSGGNTYSADSVKGRFTISRDNAKNTVYLQMNSLKPEDTAVYYCAADFLDYWGVYGWAEYEYWGQGTQVTVSS” here?
Answer: low polyreactivity

Question: For “QVQLVESGGGLVQAGGSLRLSCAASAYIYRGYPLGRYRQAPGKERELVAAISNIGGTTYYADSVKGRFTISRDNAKNTVYLQMISLKREDTEVYYCAAEHSYWGWAYGYWGQGTQVTLSS”, which “polyreactivity (PSR sort gate)” value is on record?
Answer: high polyreactivity

Question: For “QVQLVESGGGLVQAGGSLRLSCAASDLQILCYGWYRQPPGKERELFASITRGDGSTYYADSVKGRFTISRDNAKNTVFIQMNSLKPEDTAVYYCADYNDWRDELYDYWGQGTQVTVSS”, which “polyreactivity (PSR sort gate)” value is on record?
Answer: low polyreactivity

Question: With “QVQLVESGGGLVQAGGSLRLSCAASGAIFAYNAMGWYRQAPGKEREFVAAISQSGGRTYYADSVKGRFTISRDYEKNTVYLQMNTLKPEDTAVYYCATDGIRLTSHRDYDYWGQGTQVTVSS” as the sequence, how does the “polyreactivity (PSR sort gate)” value read?
Answer: low polyreactivity

Question: With “QVQLVESGGGLVQAGGSLRLSCAASGAIFESNAMGWYRQAPGKEREFVAAIDQNDGSSNYADSVKGRFTISRDNAKNTVYLQMNSLKPEDSAVYYCAAEVPGYWYLDYEYWGHGTQVTVSS” as the sequence, how does the “polyreactivity (PSR sort gate)” value read?
Answer: low polyreactivity

Question: For “QVQLVESGGGLVQAGGSLRLSCAASGAIFRGYAMGWYRQAPGKERELVATITRRCGSTYYADSVKGRFTISRDNAKNTVYLQMNSLKPEDTAVYYCNARLTFLSSWLGKLQWGYDYWGQGTQVTVSS”, which “polyreactivity (PSR sort gate)” value is on record?
Answer: low polyreactivity

Question: With “QVQLVESGGGLVQAGGSLRLSCAASGAIFVFYVMGWYRQAPGKERELVAAISNSGSSTYYADSVKGRFTISRDNAKNTVYLQMNSLKPEDTAVYYCAAEYKIPVGFDYWGQGTQVTVSS” as the sequence, how does the “polyreactivity (PSR sort gate)” value read?
Answer: low polyreactivity

Question: Which “polyreactivity (PSR sort gate)” value does the source give for “QVQLVESGGGLVQAGGSLRLSCAASGCTFDYNAMGWYRQAPGKEREFVAAIDYSSGSTYYADSVKGRFTISRDNAKNTVYLQMNCLKPEDTAVYYCNAPIAVGSGLFDYWGQGTQVTVSS” here?
Answer: high polyreactivity

Question: Which “polyreactivity (PSR sort gate)” value does the source give for “QVQLVESGGGLVQAGGSLRLSCAASGDIFSRYMGWYRQAPGKERELVAAITRGGVSTYYADSVKGRFTISRDNAKNTVYLQMNSLKPEDTAVYYCATGRPVYYVASYDYDYWGQGTQVTVSS” here?
Answer: low polyreactivity

Question: Which “polyreactivity (PSR sort gate)” value does the source give for “QVQLVESGGGLVQAGGSLRLSCAASGFIDAYTMGWYRPAPGKERELVAAITWSGGRTSYADSVKGRFTISRDTAKNTVYLQMNSLKPEDTAGYYCAKDVTPYSPDDDYWGQGTQVTVSS” here?
Answer: low polyreactivity

Question: With “QVQLVESGGGLVQAGGSLRLSCAASGFIDAYTMGWYRQAPGKERELVAAITWSGGRTYYADSVKGRFTISRDNAKNTVYLQMNSLKPEDTAVYYCAATVSRGFYSWWYDYWGQGTQVTVSS” as the sequence, how does the “polyreactivity (PSR sort gate)” value read?
Answer: low polyreactivity

Question: Which “polyreactivity (PSR sort gate)” value does the source give for “QVQLVESGGGLVQAGGSLRLSCAASGFIFADNAMGWYRQAPGKERELVAAINLGGGDTYYADSVKGRFTISRDNAKNTVYLQMNSLKPEDTAVYYCATVWFSEGYDYNHWGQGTQVTVSS” here?
Answer: low polyreactivity

Question: Which “polyreactivity (PSR sort gate)” value does the source give for “QVQLVESGGGLVQAGGSLRLSCAASGFIFADNTMGWYRQAPGKERELVGAISRRGGSTYYADSVKGRFTISRDNSKNTVYLQMNSLKPEDTAVYYCAARPFVKHDYWGQGTLVTVSS” here?
Answer: high polyreactivity

Question: With “QVQLVESGGGLVQAGGSLRLSCAASGFIFADYAMGWYRQAPGKERELVAAITRGGITYYADSVKGRFTISRDNAKNTVYLQMNSLKPEDTAVYYCAVDPSPRSYYNYYWGQGTQVTVSS” as the sequence, how does the “polyreactivity (PSR sort gate)” value read?
Answer: high polyreactivity

Question: For “QVQLVESGGGLVQAGGSLRLSCAASGFIFADYAMGWYRQAPGKERELVAAITRSGGRTYYADSVKGRFTISRDNAKNTVYLQMNSLKPEDTAVYYCAAVGPGRRRDYWGQGTQVTVSS”, which “polyreactivity (PSR sort gate)” value is on record?
Answer: high polyreactivity

Question: For “QVQLVESGGGLVQAGGSLRLSCAASGFIFADYAMGWYRQAPGKERELVAAITSSGTRTYYADSVKGRFTISRDNAKNTVYLQMNSLKPEDTAVYYCAVRGVYYYHCAFDYWGQGTQVTVSS”, which “polyreactivity (PSR sort gate)” value is on record?
Answer: high polyreactivity

Question: With “QVQLVESGGGLVQAGGSLRLSCAASGFIFADYTMGWYRQAPGKERELVAAITWSGDSTYYADSVKGRFTISRDNAKNTVYLQMNSLKPEDTAVYYCNAVNDWYYAYYGVTSFRSYDYWGQGTQVTVSS” as the sequence, how does the “polyreactivity (PSR sort gate)” value read?
Answer: low polyreactivity

Question: For “QVQLVESGGGLVQAGGSLRLSCAASGFIFAEYAMGWYRQAPGKERELVAAITSGGSTSYADSVKGRFTISRDNAKNTVYLQMNSLKPEDTAVYYCAATWYYHYNDWKHWYEYGYWGQGTQVTVSS”, which “polyreactivity (PSR sort gate)” value is on record?
Answer: low polyreactivity

Question: Which “polyreactivity (PSR sort gate)” value does the source give for “QVQLVESGGGLVQAGGSLRLSCAASGFIFAGYAMGWYRQAPGKERELVAAISSGGGSTYYADSVKGRFTISRDNAKNTVYLQMNSLKPEDTAVYYCAARRLYPPGYYYWGQGTQVTVSS” here?
Answer: high polyreactivity

Question: Which “polyreactivity (PSR sort gate)” value does the source give for “QVQLVESGGGLVQAGGSLRLSCAASGFIFAHNAMGWYRQAPGKARELVAAITSSGGSTYYADSVKGRFTISRDNAKNTVYLQKNSLKPEDTAVYYCNAYTYARRGYDYWGQGTQVTVSS” here?
Answer: high polyreactivity

Question: With “QVQLVESGGGLVQAGGSLRLSCAASGFIFAHNAMGWYRQAPGKERELVADITRDGNTYYADSVKGRFTISRDNAKNTVYLQMNSLKTEDTAVYYCAADVSTTWYWWGQFEFEYWGQGTQVTVSS” as the sequence, how does the “polyreactivity (PSR sort gate)” value read?
Answer: high polyreactivity

Question: For “QVQLVESGGGLVQAGGSLRLSCAASGFIFAKYVMGWYRQAPGKERELVAAISRSGGSTYYADSVKGRFTISRDNAKNTVYLQLNSLKPEDTAVYYCAADQTTTGGMDYWGQGTQITVSS”, which “polyreactivity (PSR sort gate)” value is on record?
Answer: high polyreactivity

Question: Which “polyreactivity (PSR sort gate)” value does the source give for “QVQLVESGGGLVQAGGSLRLSCAASGFIFAKYVMGWYRQAPGKERELVAAISRSGGSTYYADSVKGRFTISRDNAKNTVYLQMNSLKPDDTAVYYFAADQTTTGGMDFWGQGTQVTVSS” here?
Answer: high polyreactivity

Question: With “QVQLVESGGGLVQAGGSLRLSCAASGFIFANYAMGWDRQAPGKERELVAAISTSGSSTYYADSVKGRFTISRDNAKNTVYLQMNSLKPKDTAVYYCRTSGKHRLYISSYRFEYWGQGTQVTVSS” as the sequence, how does the “polyreactivity (PSR sort gate)” value read?
Answer: high polyreactivity

Question: For “QVQLVESGGGLVQAGGSLRLSCAASGFIFARYAMGWYRQAPGKERELVAAISVSGGSTYYADSVKGRFTISRDNAKNTVYLQMNSLKPEDTAVYYCAATRPFVSGWIMDYWGQGTQVTVSS”, which “polyreactivity (PSR sort gate)” value is on record?
Answer: high polyreactivity

Question: Which “polyreactivity (PSR sort gate)” value does the source give for “QVQLVESGGGLVQAGGSLRLSCAASGFIFARYGMGWYRQAPGKERELVAAIRTSGGTYYADSVKGRFTISRDNAKNTVYLQMNSLKPEDTAVYYCNVYRRVIWPKNYDYWGQGTQVTVSS” here?
Answer: high polyreactivity

Question: With “QVQLVESGGGLVQAGGSLRLSCAASGFIFASNAMGWYRQAPGKERELVAAITRSGGITYYADSVKGRFTISRDNAKNTVYLQMNSLKPEDTAVYYCNKGRRTKNSAYYDYWGQGTQVTVSS” as the sequence, how does the “polyreactivity (PSR sort gate)” value read?
Answer: high polyreactivity

Question: With “QVQLVESGGGLVQAGGSLRLSCAASGFIFASYTMGWYRQAPGKERELVASISRDGGRTSYADSVKGRFTISRDNAKNTVYLQMNSLKPEDTAVYYCAARYWLRSEYWGQGTQVTVSS” as the sequence, how does the “polyreactivity (PSR sort gate)” value read?
Answer: high polyreactivity

Question: Which “polyreactivity (PSR sort gate)” value does the source give for “QVQLVESGGGLVQAGGSLRLSCAASGFIFATYAMGWYRQAPGKERELVAAINRGGSTYYADSVKGRFTISRDNAKNTVYLQMNSLKPEDTAVYYCAAAKRYPTSTWYGYWGQGTQVTVSS” here?
Answer: high polyreactivity

Question: With “QVQLVESGGGLVQAGGSLRLSCAASGFIFATYGMGWYRQAPGKERELVATITSGGRTYYADSVKGRFTISRDNAKNTVYLQMNSLKPDDTAVYYCARASRRYWSMDYWGQGTQVSVSS” as the sequence, how does the “polyreactivity (PSR sort gate)” value read?
Answer: high polyreactivity

Question: Which “polyreactivity (PSR sort gate)” value does the source give for “QVQLVESGGGLVQAGGSLRLSCAASGFIFAVNAMGWYRQAPGKERELVAAISGRGGRTYYADSVKGRFTISRDYAKNTVYLQMNSLKPEDTAVYYCAARSYQYSYSFYWGQGTQVTVSS” here?
Answer: high polyreactivity
